From paper PMC5543139 come the findings set out here.

The data set deals with glucagon receptor on CHO-GCGR cells (human) (UniProt P47871). Kind of data set: flow cytometry on live cells. The following applies: D-PBS pH 7.4, 5 mM MgCl2, 4.5 g/L glucose, 0.1 mg/mL yeast tRNA, 1 mg/L BSA; 4 C, 1 h (45 min in Results for Kd). Background: In flow cytometry, cells or beads pass a laser one at a time.

By Kd is commonly meant the free concentration of one partner at which half of the binding sites on the other are occupied at equilibrium, for simple one-to-one binding. Low readings indicate a tighter complex, high ones a looser complex.

Sequence of glucagon receptor on CHO-GCGR cells (human) (P47871 26-477): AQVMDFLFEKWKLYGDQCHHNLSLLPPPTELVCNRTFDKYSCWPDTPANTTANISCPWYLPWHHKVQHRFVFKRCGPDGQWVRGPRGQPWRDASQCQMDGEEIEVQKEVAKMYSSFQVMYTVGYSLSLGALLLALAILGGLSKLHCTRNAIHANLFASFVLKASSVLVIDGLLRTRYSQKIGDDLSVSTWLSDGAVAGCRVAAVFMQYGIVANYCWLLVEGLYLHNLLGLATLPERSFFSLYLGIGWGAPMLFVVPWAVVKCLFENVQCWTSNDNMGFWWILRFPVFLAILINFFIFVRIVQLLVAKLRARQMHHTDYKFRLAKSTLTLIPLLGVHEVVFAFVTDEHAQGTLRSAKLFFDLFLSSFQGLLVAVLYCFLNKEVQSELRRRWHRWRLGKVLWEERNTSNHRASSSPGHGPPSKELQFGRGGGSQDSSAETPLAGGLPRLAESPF

Turning to “ATCCAGAGTGACGCAGCAGATAAGTAGGTATCCGTTTGAAAAACTTTTCTGACCGTCCGACTATGGACACGGTGGCTTAGT [GR-3]”, the Kd stood at 0.0527 µM.
